For data set [1], the target named is T1, full-length human PrimPol (recombinant) (human, UniProt Q96LW4 1-560).
T1 construct: also called wild-type PrimPol
T1 sequence (looked up): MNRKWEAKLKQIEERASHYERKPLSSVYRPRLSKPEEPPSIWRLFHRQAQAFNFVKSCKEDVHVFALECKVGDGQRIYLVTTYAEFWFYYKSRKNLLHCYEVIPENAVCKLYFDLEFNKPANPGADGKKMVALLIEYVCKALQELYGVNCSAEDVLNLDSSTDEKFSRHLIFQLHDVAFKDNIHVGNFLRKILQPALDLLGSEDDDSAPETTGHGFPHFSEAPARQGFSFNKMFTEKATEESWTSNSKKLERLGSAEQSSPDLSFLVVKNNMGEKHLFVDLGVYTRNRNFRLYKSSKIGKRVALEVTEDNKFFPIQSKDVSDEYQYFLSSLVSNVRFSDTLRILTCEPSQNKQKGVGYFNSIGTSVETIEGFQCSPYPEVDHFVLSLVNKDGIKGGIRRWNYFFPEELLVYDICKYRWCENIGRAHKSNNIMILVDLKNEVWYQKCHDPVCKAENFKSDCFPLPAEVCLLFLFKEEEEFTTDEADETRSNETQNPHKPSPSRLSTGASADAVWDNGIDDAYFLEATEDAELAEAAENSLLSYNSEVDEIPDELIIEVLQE
Put plainly: NMR titration; 15N-1H HSQC of 15N-enriched RPA domain (50 uM RPA70N) alone and with 2-fold molar excess (100 uM) of unlabelled PrimPol construct; 25°C; 20 mM HEPES, 80 mM NaCl, 2 mM DTT, 5% deuterium oxide, pH 7.1. The following applies: both partners purified.

The next data set concerns the target T2, mtSSB (human, UniProt Q04837 17-148).
T2 sequence: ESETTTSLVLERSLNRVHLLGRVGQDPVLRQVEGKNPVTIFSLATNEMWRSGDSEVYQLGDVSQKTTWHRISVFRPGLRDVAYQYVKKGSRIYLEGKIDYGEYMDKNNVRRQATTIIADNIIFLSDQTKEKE
Nature of the data set: EMSA; 10 mM Mg acetate; full shift at less than half the amount needed for RPA; super-shifted bands = multiple SSBs bound; EMSA: 50 mM K acetate, 20 mM Tris-acetate pH 7.9, 10 mM Mg acetate, 1 mM DTT, 60 nM FAM-ssDNA, 60 min at room temperature; 5% native PAGE in 0.5x TBE. As to conditions: protein: recombinant; chain copies: 4; label: 5'-FAM (fluorescein); single strand. A general note: A gel shift assay detects complexes by their altered migration in electrophoresis.

The target of data set [2] is RPA (replication protein A) (human, UniProt P27694;P15927;P35244 1-616;1-270;1-121). Put plainly: EMSA; 10 mM Mg acetate; SSB/oligo 0-16; more than twice as much RPA as mtSSB needed to fully shift; super-shifted bands = multiple SSBs bound; EMSA: 50 mM K acetate, 20 mM Tris-acetate pH 7.9, 10 mM Mg acetate, 1 mM DTT, 60 nM FAM-ssDNA, 60 min at room temperature; 5% native PAGE in 0.5x TBE. As to conditions: protein: recombinant; copies: 1;1;1; label: 5'-FAM (fluorescein); single strand.
Sequence of RPA (replication protein A) (P15927 whole entry, chain 2 of 2): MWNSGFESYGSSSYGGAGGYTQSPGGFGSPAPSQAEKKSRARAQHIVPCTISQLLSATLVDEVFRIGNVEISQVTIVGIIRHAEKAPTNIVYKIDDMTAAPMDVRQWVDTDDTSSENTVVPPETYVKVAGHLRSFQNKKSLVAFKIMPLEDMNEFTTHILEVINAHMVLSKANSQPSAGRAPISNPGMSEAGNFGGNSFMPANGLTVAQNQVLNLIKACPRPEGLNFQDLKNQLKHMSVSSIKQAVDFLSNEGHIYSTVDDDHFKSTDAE
Sequence of RPA (replication protein A) (P35244 whole entry, chain 3 of 2): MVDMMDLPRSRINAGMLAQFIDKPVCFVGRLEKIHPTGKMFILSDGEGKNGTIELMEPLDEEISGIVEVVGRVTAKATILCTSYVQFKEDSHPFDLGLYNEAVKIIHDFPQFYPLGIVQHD

B1: RPA70N^1–120 (DBD-N of RPA1, N-terminal domain of RPA70) (domain or fragment, human, UniProt P27694 1-120, looked up)
chain: MVGQLSEGAIAAIMQKGDTNIKPILQVINIRPITTGNSPPRYRLLMSDGLNTLSSFMLATQLNPLVEEEQLSSNCVCQIHRFIVNTLKDGRRVVILMELEVLKSAEAVGVKIGNPVPYNE
modifications: 15N-enriched
notes: RPA70 (RPA1) residues 1-120, N-terminal protein recruitment domain
Consider B1, for which, in data set [1], the binding result is recorded as “binds”.

B2: ND-50 ssDNA Template (sequence 16) (ssDNA)
DNA: CGCGCAGGGCGCACAACAGCCTTGAAGACCGAACGACCGAACAGACGACA
Take B2: the binding result (with mtSSB; in data set [2]) was “binds” in each case.

Source of the values: publication PMC4333378, “Human PrimPol is a highly error-prone polymerase regulated by single-stranded DNA binding proteins” (Nucleic Acids Research, 2014).
